Literature values, collected in paper PMC2728785 (Biomaterials, 2009).
Values belong to the molecule of their own block, whether it stands above or below them.

How the values were obtained:
[1] = versus unmodified bovine hemoglobin

Molecule: 12 copies of a 5 kDa PEG conjugated to bovine hemoglobin: PEGylated bovine hemoglobin from the literature
increase of blood half-life [1]: 14 factor
increase of systemic availability [1]: 8 factor

degradation rate relative to the less hindered cysteamine linker (disulfide bond prepared from the sterically hindered linker): about 100 times slower
Molecule: CC(C)(S)CN [1-amino-2-methyl-2-propanethiol]

Molecule: NCCS [cysteamine linker, cysteamine]
t1/2 of GSH-dependent disulfide degradation (disulfide bond prepared from the linker): 3 min
